The subject of experiment [1] is CXCL12 levels. The note with it: humans; cited from earlier work.
The test system of experiment [2] is CXCL12 levels. The arrangement: method as in PMID 33595155, PMID 38819698. The settings on record: mice, in vivo application; cited from earlier work.
For experiment [3], the target named is hCCR3 C-terminally tagged with SmBiT (chemokine receptor screen) (human) (UniProt P51677).
The target of another experiment is CCR3 (Homo sapiens, UniProt P51677). The experiment in a line: NanoBiT β-arrestin2 recruitment to CCR3, concentration-response. It is filed as cell-based. The settings on record: HEK293T, NanoBiT. The method, then: The pharmacological modulation of all chemokine receptors by VUF16840 was performed according to an established method.[8]^,[23]^,[39] Briefly, β-arrestin2 recruitment to chemokine receptors in response to 1 μM VUF16840 or positive control chemokines was monitored by NanoLuc complementation assay (NanoBiT, Promega). Four hours after transfection, cells were harvested, incubated for 25 minutes at 37 °C with furimazine and distributed into a white 96-well plates (1 × 10^5 cells per well). β-Arrestin2 recruitment was then detected for 20 minutes upon treatment with 1 μM VUF16840 (or increasing concentrations ligand for experiments with CC chemokine receptor [CCR3]) using the Mithras LB940 luminometer (Berthold Technologies). To evaluate the antagonist properties of VUF16840, full agonists of each receptor were added after the 20-minute incubation with VUF16840. Signal from wells treated with full agonist only was defined as 100% activity and signals from wells treated with no agonist were used to set 0% activity.
Supplemental Figure 5 – Modulation of CCR3 receptor by VUF16840. Recruitment of β-arrestin2 towards CCR3 chemokine receptor was measured using a NLuc complementation assay in HEK293T cells. The concentration-dependent activation of the CCR3 was determined for VUF16840 and the endogenous agonist CCL13. All values depict the mean ± SD of ≥ 3 experiments.
On the technique in general: Arrestin recruitment assays detect the binding of arrestin to an activated receptor.

The target in experiment [4] is T1, ACKR3 (Homo sapiens, UniProt P25106).
T1 construct: expressed in transfected cells; host or cells: HEK293T
The experiment in a line: BRET β-arrestin1 recruitment to ACKR3 in HEK293T cells. It is filed as cell-based. The note with it: * VUF16840 as inverse agonist. As to the method:
(§1) For bioluminescence resonance energy transfer (BRET) experiments, several BRET acceptor constructs were used that consist of the pcDEF3 vector with either GRK2 (NCBI: NM_174710.2), β-arrestin1 (NCBI: NM_174243.3), or β-arrestin2 (NCBI: XM_005220181.4) fused at the C-terminus with a SpeI/NotI linker to mVenus (NCBI: KP666136.1), as previously described.[34]
(§2) For 1·10^6 HEK293T cells, a transfection mix consisting of 2 μg plasmid DNA, 12 μg linear PEI in a total volume of 200 μL 150 mM NaCl was made and thoroughly vortexed. The transfection mix was incubated for 15 minutes and consequently added to a cell suspension with a final concentration of 3·10^5 cells/mL. For functional studies this cell suspension was immediately transferred to a poly-L-lysine-coated white 96-well plate, with 3·10^4 cells per well. […] For BRET-based membrane localization experiments, the 2 μg plasmid DNA consisted of ACKR3-NL (0.05 μg), mVenus-CAAX (0.25 μg), and pcDEF3 vector DNA without insert (1.7 μg).
(§3) Mean pIC50 values were determined by averaging fitted values from individual experiments. Graphs depict the pooled data of all experiments. Similarly, sigmoidal, ligand-induced concentration-dependent activation or inhibition of the proximity between ACKR3 and the protein of interest was analyzed using GraphPad Prism 8, by fitting a 3-parameter concentration-response model to the data, to determine pEC50/pIC50 values. Mean pEC50 values and pIC50 values were determined by averaging fitted values from individual experiments. Graphs depict the pooled data of all experiments, for which values are normalized, per experiment, to the fold difference compared with basal signal.
HEK293T cells were stimulated with increasing concentrations of VUF15485 or VUF16840 only (A–D), or increasing concentrations of VUF16840 in the presence of 100 nM VUF15485 (E–H). The resulting proximity between ACKR3 and β-arrestin1 (A, E), GRK2 (B, F), or Rab5a (C, G) was determined by bioluminescence resonance energy transfer. Furthermore, an interaction between clathrin A and β-arrestin2 was measured by NLuc complementation, as was determined by quantifying the relative light units (D, H). Depicted data is normalized as fold-basal and represents the mean ± SD of N experiments with triplicate measurements per experiment. N is specified in Supplemental Table 1.
On the technique in general: In BRET a luciferase serves as donor, and the signal depends on an acceptor being close.

Experiment [5] addresses T1, ACKR3. Kind of experiment: BRET β-arrestin2 recruitment to hACKR3 in HEK293T cells. The settings on record: * VUF16840 as inverse agonist; mean ± SD (N). The class given is cell-based. The method, then: as §1, §2, §3
Experiment [6] addresses N-terminally NLuc-tagged hACKR3 (human) (UniProt P25106).
Experiment [7] has as its target hACKR3-SmBiT (HA-tagged ACKR3 C-terminally fused to SmBiT) (human) (UniProt P25106).

T1 sequence (P25106 whole entry): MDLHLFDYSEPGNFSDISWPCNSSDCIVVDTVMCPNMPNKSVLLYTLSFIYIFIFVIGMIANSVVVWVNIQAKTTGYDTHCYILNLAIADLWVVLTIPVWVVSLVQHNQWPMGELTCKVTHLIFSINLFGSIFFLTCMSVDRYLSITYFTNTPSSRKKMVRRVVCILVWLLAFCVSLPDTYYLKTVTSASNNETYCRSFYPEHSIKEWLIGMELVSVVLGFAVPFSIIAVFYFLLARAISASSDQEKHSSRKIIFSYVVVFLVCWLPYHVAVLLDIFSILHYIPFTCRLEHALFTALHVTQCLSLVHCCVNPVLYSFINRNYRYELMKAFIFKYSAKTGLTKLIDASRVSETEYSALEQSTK
Chain of Human recombinant CXCL12 (P48061 22-93): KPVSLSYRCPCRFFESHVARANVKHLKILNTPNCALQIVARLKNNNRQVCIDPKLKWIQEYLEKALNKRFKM
Chain of CCR3 (P51677 whole entry): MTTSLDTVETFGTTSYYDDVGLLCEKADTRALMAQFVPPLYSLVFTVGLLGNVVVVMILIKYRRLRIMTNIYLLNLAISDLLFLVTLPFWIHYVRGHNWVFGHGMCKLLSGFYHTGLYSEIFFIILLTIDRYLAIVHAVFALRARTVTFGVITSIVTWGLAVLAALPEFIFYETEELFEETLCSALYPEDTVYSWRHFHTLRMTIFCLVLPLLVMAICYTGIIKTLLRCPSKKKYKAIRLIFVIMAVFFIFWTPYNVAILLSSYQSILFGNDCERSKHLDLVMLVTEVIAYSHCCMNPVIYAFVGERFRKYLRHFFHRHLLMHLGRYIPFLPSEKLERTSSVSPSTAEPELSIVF
Chain of CCR3 (P32121 whole entry partner): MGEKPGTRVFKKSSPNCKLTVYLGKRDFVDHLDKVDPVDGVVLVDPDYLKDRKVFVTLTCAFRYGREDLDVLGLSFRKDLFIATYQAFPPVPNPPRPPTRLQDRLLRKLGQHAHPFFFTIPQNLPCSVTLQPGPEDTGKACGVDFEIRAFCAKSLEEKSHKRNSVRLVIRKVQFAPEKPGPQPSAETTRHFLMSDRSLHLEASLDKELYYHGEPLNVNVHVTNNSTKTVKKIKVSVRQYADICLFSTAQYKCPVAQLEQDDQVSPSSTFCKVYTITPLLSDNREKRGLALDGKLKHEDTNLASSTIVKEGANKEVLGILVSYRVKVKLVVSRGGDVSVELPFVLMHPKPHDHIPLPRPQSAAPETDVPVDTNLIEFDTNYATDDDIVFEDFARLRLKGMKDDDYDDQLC
Chain of hACKR3-SmBiT (HA-tagged ACKR3 C-terminally fused to SmBiT) (human) (P25106 whole entry, the tested form may be a part): as the sequence (P25106 whole entry) above
Chain of N-terminally NLuc-tagged hACKR3 (human) (P25106 whole entry, the tested form may be a part): as the sequence (P25106 whole entry) above
Chain of CCL13 (Q99616 17-98): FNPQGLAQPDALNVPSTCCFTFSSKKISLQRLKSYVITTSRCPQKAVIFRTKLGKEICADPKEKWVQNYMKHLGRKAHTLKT
Chain of hCCR3 C-terminally tagged with SmBiT (chemokine receptor screen) (human) (P51677 whole entry): as the sequence (P51677 whole entry) above

In the case of `O=C(N[C@H]1CCN(CC2CC2)C[C@@H]1C(=O)NC1(c2ncccn2)CC1)c1cc(-c2ccc(F)cc2F)on1` [ACT1004-1239], in the experiment with CXCL12 levels [1], the “plasma CXCL12 levels” value is on record as “increase”. Moreover, in the experiment with CXCL12 levels [2], the “plasma and brain CXCL12 levels” value is listed as “increase”.
Consider “CCL13 (from UniProt Q99616 17-98) (ligand)”, for which the β-arrestin2 recruitment to CCR3 (NanoBiT, HEK293T), EC50 of CCL13 in experiment [3] was determined as 63 nM.
As usually defined, the EC50 is the midpoint of the concentration-response curve. For the molecule “CCL13: endogenous ligand (agonist) of CCR3”, in the experiment with CCR3, the “pEC50, activation of CCR3 (β-arrestin2 recruitment)” value worked out at 7.2 ± 0.1. Further, the EC50 with CCR3 (read-out: EC50, activation of CCR3 (β-arrestin2 recruitment)) was found to be 63 nM.
For the molecule “CXCL11: human recombinant chemokine, endogenous agonist of ACKR3”, in the experiment with ACKR3 [4], the “β-arrestin1 BRET pEC50” value is listed as 8.1 ± 0.1 (6). Also, in the experiment with ACKR3 [5], the “β-arrestin2 BRET pEC50” value is listed as 8.2 ± 0.1 (3).
“Human recombinant CXCL12 (from UniProt P48061 22-93) (ligand)” displayed a bystander BRET between ACKR3-NLuc (C-terminal NLuc, not the construct of m2) and plasma membrane mVenus-CAAX in HEK293T cells (receptor internalization), pIC50 of CXCL12 in experiment [6] of 9.1 pIC50. Besides, the β-arrestin2 recruitment to hACKR3 (NanoBiT, HEK293T, concentration-response after 30 minutes), EC50 of CXCL12 in experiment [7] came to 1.6 nM.

The values are drawn from publication PMC12799421, “Inhibition of constitutive activity of the atypical chemokine receptor 3 by the small-molecule inverse agonist VUF16840” (Molecular Pharmacology, 2025).
